Experimental data as given in the Human Domainome abundance scans (Beltran et al. 2025).
± gives the uncertainty stated by the source.

Test: abundance fitness (aPCA) (normalised: wild type 0, dead -1); higher = more abundant; growth selection in yeast, the domain comes from the species named
Conditions: Homo sapiens
For “NEDD4-like E3 ubiquitin-protein ligase WWP2 D492Q, O00308”, the abundance fitness was -0.043 ± 0.088.
For “NEDD4-like E3 ubiquitin-protein ligase WWP2 D492R, O00308”, the abundance fitness was -0.223 ± 0.051.
Substance “NEDD4-like E3 ubiquitin-protein ligase WWP2 D492S, O00308” has an abundance fitness of -0.071 ± 0.053.
Substance “NEDD4-like E3 ubiquitin-protein ligase WWP2 D492T, O00308” has an abundance fitness of -0.085 ± 0.073.
With “NEDD4-like E3 ubiquitin-protein ligase WWP2 D492V, O00308” the abundance fitness was -0.143 ± 0.049.
Work on “NEDD4-like E3 ubiquitin-protein ligase WWP2 D492W, O00308” yielded an abundance fitness of -0.319 ± 0.033.
Work on “NEDD4-like E3 ubiquitin-protein ligase WWP2 D492Y, O00308” yielded an abundance fitness of -0.189 ± 0.033.
“NEDD4-like E3 ubiquitin-protein ligase WWP2 E443A, O00308” showed an abundance fitness of -0.065 ± 0.032.
With “NEDD4-like E3 ubiquitin-protein ligase WWP2 E443C, O00308” the abundance fitness was 0.004 ± 0.076.
In the case of “NEDD4-like E3 ubiquitin-protein ligase WWP2 E443D, O00308”, the abundance fitness is reported as -0.06 ± 0.075.
With “NEDD4-like E3 ubiquitin-protein ligase WWP2 E443F, O00308” the abundance fitness was -0.287 ± 0.088.
Substance “NEDD4-like E3 ubiquitin-protein ligase WWP2 E443G, O00308” has an abundance fitness of -0.091 ± 0.038.
In the case of “NEDD4-like E3 ubiquitin-protein ligase WWP2 E443H, O00308”, the abundance fitness is reported as -0.082 ± 0.044.
“NEDD4-like E3 ubiquitin-protein ligase WWP2 E443I, O00308” showed an abundance fitness of -0.093 ± 0.073.
“NEDD4-like E3 ubiquitin-protein ligase WWP2 E443K, O00308” gave an abundance fitness of -0.062 ± 0.073.
Substance “NEDD4-like E3 ubiquitin-protein ligase WWP2 E443L, O00308” has an abundance fitness of -0.183 ± 0.055.
Substance “NEDD4-like E3 ubiquitin-protein ligase WWP2 E443M, O00308” has an abundance fitness of -0.14 ± 0.055.
For “NEDD4-like E3 ubiquitin-protein ligase WWP2 E443N, O00308”, the abundance fitness was -0.019 ± 0.08.
For “NEDD4-like E3 ubiquitin-protein ligase WWP2 E443P, O00308”, the abundance fitness was -0.065 ± 0.064.
In the case of “NEDD4-like E3 ubiquitin-protein ligase WWP2 E443Q, O00308”, the abundance fitness is reported as -0.205 ± 0.076.
With “NEDD4-like E3 ubiquitin-protein ligase WWP2 E443R, O00308” the abundance fitness was -0.174 ± 0.042.
Work on “NEDD4-like E3 ubiquitin-protein ligase WWP2 E443T, O00308” yielded an abundance fitness of -0.248 ± 0.085.
“NEDD4-like E3 ubiquitin-protein ligase WWP2 E443V, O00308” gave an abundance fitness of -0.087 ± 0.036.
Work on “NEDD4-like E3 ubiquitin-protein ligase WWP2 E443W, O00308” yielded an abundance fitness of -0.185 ± 0.039.
“NEDD4-like E3 ubiquitin-protein ligase WWP2 E443Y, O00308” gave an abundance fitness of 0.006 ± 0.058.
For “NEDD4-like E3 ubiquitin-protein ligase WWP2 E451A, O00308”, the abundance fitness was -0.153 ± 0.056.
In the case of “NEDD4-like E3 ubiquitin-protein ligase WWP2 E451C, O00308”, the abundance fitness is reported as -0.227 ± 0.063.
Substance “NEDD4-like E3 ubiquitin-protein ligase WWP2 E451F, O00308” has an abundance fitness of -0.572 ± 0.083.
Substance “NEDD4-like E3 ubiquitin-protein ligase WWP2 E451G, O00308” has an abundance fitness of -0.287 ± 0.037.
Substance “NEDD4-like E3 ubiquitin-protein ligase WWP2 E451H, O00308” has an abundance fitness of -0.54 ± 0.089.
For “NEDD4-like E3 ubiquitin-protein ligase WWP2 E451I, O00308”, the abundance fitness was -0.503 ± 0.091.
With “NEDD4-like E3 ubiquitin-protein ligase WWP2 E451K, O00308” the abundance fitness was -0.472 ± 0.076.
“NEDD4-like E3 ubiquitin-protein ligase WWP2 E451L, O00308” gave an abundance fitness of -0.415 ± 0.053.
In the case of “NEDD4-like E3 ubiquitin-protein ligase WWP2 E451M, O00308”, the abundance fitness is reported as -0.122 ± 0.056.
In the case of “NEDD4-like E3 ubiquitin-protein ligase WWP2 E451N, O00308”, the abundance fitness is reported as -0.342 ± 0.065.
In the case of “NEDD4-like E3 ubiquitin-protein ligase WWP2 E451P, O00308”, the abundance fitness is reported as -1.34 ± 0.3.
For “NEDD4-like E3 ubiquitin-protein ligase WWP2 E451Q, O00308”, the abundance fitness was 0.066 ± 0.07.
In the case of “NEDD4-like E3 ubiquitin-protein ligase WWP2 E451S, O00308”, the abundance fitness is reported as -0.072 ± 0.032.
“NEDD4-like E3 ubiquitin-protein ligase WWP2 E451T, O00308” gave an abundance fitness of -0.229 ± 0.045.
Work on “NEDD4-like E3 ubiquitin-protein ligase WWP2 E451V, O00308” yielded an abundance fitness of -0.113 ± 0.031.
“NEDD4-like E3 ubiquitin-protein ligase WWP2 E451W, O00308” gave an abundance fitness of -1.18 ± 0.18.
Substance “NEDD4-like E3 ubiquitin-protein ligase WWP2 E451Y, O00308” has an abundance fitness of -0.378 ± 0.071.
For “NEDD4-like E3 ubiquitin-protein ligase WWP2 E457A, O00308”, the abundance fitness was -0.081 ± 0.044.
Work on “NEDD4-like E3 ubiquitin-protein ligase WWP2 E457C, O00308” yielded an abundance fitness of -0.155 ± 0.073.
Substance “NEDD4-like E3 ubiquitin-protein ligase WWP2 E457D, O00308” has an abundance fitness of -0.068 ± 0.062.
In the case of “NEDD4-like E3 ubiquitin-protein ligase WWP2 E457F, O00308”, the abundance fitness is reported as -0.253 ± 0.074.
In the case of “NEDD4-like E3 ubiquitin-protein ligase WWP2 E457G, O00308”, the abundance fitness is reported as -0.116 ± 0.037.
With “NEDD4-like E3 ubiquitin-protein ligase WWP2 E457H, O00308” the abundance fitness was -0.089 ± 0.035.
“NEDD4-like E3 ubiquitin-protein ligase WWP2 E457I, O00308” showed an abundance fitness of -0.285 ± 0.042.
“NEDD4-like E3 ubiquitin-protein ligase WWP2 E457K, O00308” showed an abundance fitness of -0.118 ± 0.056.
“NEDD4-like E3 ubiquitin-protein ligase WWP2 E457L, O00308” showed an abundance fitness of -0.204 ± 0.056.
“NEDD4-like E3 ubiquitin-protein ligase WWP2 E457M, O00308” showed an abundance fitness of -0.349 ± 0.071.
Work on “NEDD4-like E3 ubiquitin-protein ligase WWP2 E457N, O00308” yielded an abundance fitness of -0.189 ± 0.068.
“NEDD4-like E3 ubiquitin-protein ligase WWP2 E457P, O00308” gave an abundance fitness of -0.5 ± 0.075.
Work on “NEDD4-like E3 ubiquitin-protein ligase WWP2 E457Q, O00308” yielded an abundance fitness of -0.022 ± 0.056.
“NEDD4-like E3 ubiquitin-protein ligase WWP2 E457R, O00308” gave an abundance fitness of -0.251 ± 0.061.
“NEDD4-like E3 ubiquitin-protein ligase WWP2 E457S, O00308” showed an abundance fitness of -0.201 ± 0.061.
With “NEDD4-like E3 ubiquitin-protein ligase WWP2 E457T, O00308” the abundance fitness was -0.081 ± 0.067.
With “NEDD4-like E3 ubiquitin-protein ligase WWP2 E457V, O00308” the abundance fitness was -0.188 ± 0.031.
Substance “NEDD4-like E3 ubiquitin-protein ligase WWP2 E457W, O00308” has an abundance fitness of -0.624 ± 0.096.
Work on “NEDD4-like E3 ubiquitin-protein ligase WWP2 E457Y, O00308” yielded an abundance fitness of -0.216 ± 0.057.
In the case of “NEDD4-like E3 ubiquitin-protein ligase WWP2 E480A, O00308”, the abundance fitness is reported as -0.08 ± 0.034.
In the case of “NEDD4-like E3 ubiquitin-protein ligase WWP2 E480C, O00308”, the abundance fitness is reported as -0.611 ± 0.043.
With “NEDD4-like E3 ubiquitin-protein ligase WWP2 E480D, O00308” the abundance fitness was 0.015 ± 0.06.
